Data published in patent publication US20230340555A1, “PRODUCTION OF GLYCOSYLATED CANNABINOIDS” (WILLOW BIOSCIENCES, INC., priority 2020, published 2023).

B1: AtUGT76D1: UDP-glycosyl transferase from Arabidopsis thaliana, amino acid sequence SEQ ID NO: 30 (protein, listed as Arabidopsis thaliana)
chain: MAEIRQRRVLMVPAPFQGHLPSMMNLASYLSSQGFSITIVRNEFNFKDISHNFPGIKFFTIKDGLSESDVKSLGLLEFVLELNSVCEPLLKEFLTNHDDVVDFIIYDEFVYFPRRVAEDMNLPKMVFSPSSAATSISRCVLMENQSNGLLPPQDARSQLEETVPEFHPFRFKDLPFTAYGSMERLMILYENVSNRASSSGIIHNSSDCLENSFITTAQEKWGVPVYPVGPLHMTNSAMSCPSLFEEERNCLEWLEKQETSSVIYISMGSLAMTQDIEAVEMAMGFVQSNQPFLWVIRPGSINGQESLDFLPEQFNQTVTDGRGFVVKWAPQKEVLRHRAVGGFWNHGGWNSCLESISSGVPMICRPYSGDQRVNTRLMSHVWQTAYEIEGELERGAVEMAVRRLIVDQEGQEMRMRATILKEEVEASVTTEGSSHNSLNNLVHAIMMQIDEQ
B2: AtUGT73B1: UDP-glycosyl transferase from Arabidopsis thaliana, amino acid sequence SEQ ID NO: 24 (protein, listed as Arabidopsis thaliana)
chain: MGVFGSNESSSMSIVMYPWLAFGHMTPFLHLSNKLAEKGHKIVFLLPKKALNQLEPLNLYPNLITFHTISIPQVKGLPPGAETNSDVPFFLTHLLAVAMDQTRPEVETIFRTIKPDLVFYDSAHWIPEIAKPIGAKTVCFNIVSAASIALSLVPSAEREVIDGKEMSGEELAKTPLGYPSSKVVLRPHEAKSLSFVWRKHEAIGSFFDGKVTAMRNCDAIAIRTCRETEGKFCDYISRQYSKPVYLTGPVLPGSQPNQPSLDPQWAEWLAKFNHGSVVFCAFGSQPVVNKIDQFQELCLGLESTGFPFLVAIKPPSGVSTVEEALPEGFKERVQGRGVVFGGWIQQPLVLNHPSVGCFVSHCGFGSMWESLMSDCQIVLVPQHGEQILNARLMTEEMEVAVEVEREKKGWFSRQSLENAVKSVMEEGSEIGEKVRKNHDKWRCVLTDSGFSDGYIDKFEQNLIELVKS
B3: AtUGT85A3: UDP-glycosyl transferase from Arabidopsis thaliana, amino acid sequence SEQ ID NO: 22 (protein, listed as Arabidopsis thaliana)
chain: MGSRFVSNEQKPHVVCVPYPAQGHINPMMKVAKLLHVKGFHVTFVNTVYNHNRLLRSRGANALDGLPSFQFESIPDGLPETGVDATQDIPALSESTTKNCLVPFKKLLQRIVTREDVPPVSCIVSDGSMSFTLDVAEELGVPEIHFWTTSACGFMAYLHFYLFIEKGLCPVKDASCLTKEYLDTVIDWIPSMNNVKLKDIPSFIRTTNPNDIMLNFVVREACRTKRASAIILNTFDDLEHDIIQSMQSILPPVYPIGPLHLLVNREIEEDSEIGRMGSNLWKEETECLGWLNTKSRNSVVYVNFGSITIMTTAQLLEFAWGLAATGKEFLWVMRPDSVAGEEAVIPKEFLAETADRRMLTSWCPQEKVLSHPAVGGFLTHCGWNSTLESLSCGVPMVCWPFFAEQQTNCKFSCDEWEVGIEIGGDVKRGEVEAVVRELMDGEKGKKMREKAVEWRRLAEKATKLPCGSSVINFETIVNKVLLGKIPNT
B4: CsUGT75D1-DN11028: UDP-glycosyl transferase from Cannabis sativa, amino acid sequence SEQ ID NO: 38 (protein, listed as Cannabis sativa)
chain: MKRTLLFIPSPGIGHLVSMLEFAKRLIQYDDRLFITILSMKFPNHDAYINSLVPSLSQSRVKLAHLPQVDPPPPKLLNSPESYIYVYVESLVPHVRDALKHIVPSHSNSETTHSQGCFVMVLDFFCMPMMDVANELGLPSYMFMPSNIGFLSSMLYLATRHDQISSELKESNPDEYSLKSFHNPVPWSALPQAYFCKDGGYSACVKMAQRFRETKGIIVNSFEGLEAHGATSFNDGETPPIYMVGPVVNFKGQPHSSTDHVQNNRIFKWLDEQPQSSVVFLCFASLGTFDASQLREIASGLECSGHRFLWCIRVQQPTIIDEILPEGFLERIGSKGMICNEWTPQVEVLAHNAVGGFVSHCGWNSILESLWYGVPIVTWPVYAEQQLNAFQMVREFDLAIELRLDYRNRGHNQLVTAEEIGNAIKKLMEGDHNVVMRKKGASGISSMVLSRFYTCKENVVLRQDPRWFAIKAGGEEK
B5: At5g65550: UDP-glycosyl transferase from Arabidopsis thaliana, amino acid sequence SEQ ID NO: 26 (protein, listed as Arabidopsis thaliana)
chain: MAEPKPKLHVAVFPWLALGHMIPYLQLSKLIARKGHTVSFISTARNISRLPNISSDLSVNFVSLPLSQTVDHLPENAEATTDVPETHIAYLKKAFDGLSEAFTEFLEASKPNWIVYDILHHWVPPIAEKLGVRRAIFCTFNAASIIIIGGPASVMIQGHDPRKTAEDLIVPPPWVPFETNIVYRLFEAKRIMEYPTAGVTGVELNDNCRLGLAYVGSEVIVIRSCMELEPEWIQLLSKLQGKPVIPIGLLPATPMDDADDEGTWLDIREWLDRHQAKSVVYVALGTEVTISNEEIQGLAHGLELCRLPFFWTLRKRTRASMLLPDGFKERVKERGVIWTEWVPQTKILSHGSVGGFVTHCGWGSAVEGLSFGVPLIMFPCNLDQPLVARLLSGMNIGLEIPRNERDGLFTSASVAETIRHVVVEEEGKIYRNNAASQQKKIFGNKRLQDQYADGFIEFLENPIAGV
B6: CsUGT71 D1-DN48028: UDP-glycosyl transferase from Cannabis sativa, amino acid sequence SEQ ID NO: 40 (protein, listed as Cannabis sativa)
chain: MARVELVFIPAPAIGHLVSTLEFAKRLIHYDHRLFITVLCEFSLKSHLDAYIDSLVASLSLAHRIKLVHLPLVDSPPVELLKSIENFIYQYMESLVPHVRKALTDIVSSNSNYSQGDVVLVLDFFCMPMMDVANELGLPSYMFMTSNLGLLSLMFYLATRHNQISSELEESDAPLRLQGFQNPVPSSVLPTAAFCKDGGYSAYVKLAQRFRETKGIIVNSFEELESYSFSSMNDGAETPPIYMVGPVLDLNGQPHPSMDQVQNDKILKWLDEQPHSSVVFLCFGSMGKFGASQLREIASGLQRSGHRFLWSVRVQQPTTIDEILPEGFLEQIGSKGMICNEWAPQVKILAHSAVGGFLSHCGWNSILESLWYGVPVATWPIYAEQQLNAFRMVREFGLAVDLRLDYKDRGDDHIVSAEEIETAVKHLMEGDKEVRKKVKEMSETARKSVEEGGSSFTAIGKLINSIIGSNYY
B7: AtUGT76B1: UDP-glycosyl transferase from Arabidopsis thaliana, amino acid sequence SEQ ID NO: 28 (protein, listed as Arabidopsis thaliana)
chain: METRETKPVIFLFPFPLQGHLNPMFQLANIFFNRGFSITVIHTEFNSPNSSNFPHFTFVSIPDSLSEPESYPDVIEILHDLNSKCVAPFGDCLKKLISEEPTAACVIVDALWYFTHDLTEKFNFPRIVLRTVNLSAFVAFSKFHVLREKGYLSLQETKADSPVPELPYLRMKDLPWFQTEDPRSGDKLQIGVMKSLKSSSGIIFNAIEDLETDQLDEARIEFPVPLFCIGPFHRYVSASSSSLLAHDMTCLSWLDKQATNSVIYASLGSIASIDESEFLEIAWGLRNSNQPFLWVVRPGLIHGKEWIEILPKGFIENLEGRGKIVKWAPQPEVLAHRATGGFLTHCGWNSTLEGICEAIPMICRPSFGDQRVNARYINDVWKIGLHLENKVERLVIENAVRTLMTSSEGEEIRKRIMPMKETVEQCLKLGGSSFRNLENLIAYILSF

System: CN3 yeast strain host cells
Test: Detection of glycosylated cannabinoids and cannabinoid precursors in yeast cells expressing UDP-glycosyl transferase (HPLC-MS)
Type: cell-based
Conditions: pellet or supernatant of recombinant yeast host cells transformed with the UGT
Description: CN3 yeast strain host cells were transformed as described in Example 1 with one of the following heterologous UGT genes: (1) AtUGT73C6, (2) AtUGT73B4, (3) AtUGT71 D1, (4) AtUGT76E12, (5) AtUGT88A1, (6) HaUGT76G1-L, (7) At5g49690, (8) AtUGT76C4, (9) CsUGT73C6, (10) SrUGT76C1, (11) AtUGT85A3, (12) AtUGT73B1, (13) Atg65550, (14) AtUGT76B1, (15) ATUGT76B1, (16) CsUGT75B2, (17) CsUGT73B4, (18) CsUGT73B1, (19) CsUGT75D1-DN11028, and (20) CsUGT71D1-DN48028. The transformed host cells were pre-grown overnight in yeast extract peptone dextrose (YPD) growth medium and then back diluted into yeast extract peptone galactose (YPG) to OD600 = 0.2. […] Strains were incubated for 20 h at 28° C. rotating at 600 RPM in an EPOCH|2 microplate reader (BioTek). Subsequently, samples were treated with an extraction solvent (80 % Acetonitrile, 20 % Methanol) for 1 hour rotating at 100 RPM. After 20 minutes centrifugation at 12,000 RPM, the supernatant was filtered with a basix 13 mm syringe filter (0.22 µm pore size, Nylon membrane) and transferred to a new tube for further analysis.
Glycosylated cannabinoid compounds and glycosylated cannabinoid precursor compounds were assayed in the supernatant and the cellular pellet employing HPLC and HPLC-MS analysis. HPLC and HPLC-MS analysis was carried out as described below to detect the following glycosylated cannabinoid and cannabinoid precursor compounds: CBGA monoglucoside, CBGA diglucoside, CBDA monoglucoside, CBDA diglucoside, CBGA glucuronic acid, CBD monoglucoside, CBD diglucoside, olivetolic acid monoglucoside (“OliAcid monoglucoside”), olivetolic acid diglucoside (“OliAcid diglucoside”).
HPLC analysis was carried out on an Agilent Technologies 1290 Infinity system, consisting of a vacuum degasser, a binary pump, a thermostated autosampler, a thermostated column compartment and a diode array detector (DAD). A Zorbax Eclipse Plus EC-18 column (2.1 × 50 mm, 1.8 µm, Agilent, USA) was used with a mobile phase composed of 0.1% formic acid in both (A) water with 0.2 % Formic Acid and (B) Acetonitrile with 0.2 % Formic Acid. The chromatographic conditions were set as follows: 0.0-8.0 min linear gradient from 5 to 95% B; 8.1-9.09 min […], 9.10-11.0 min 5 to 95% A for equilibration of the column with the initial conditions. The flow rate was set at 0.4 ml/min. The column temperature was set at 40° C. The sample injection volume was 5 µL. The UV/DAD acquisitions were carried out in the range 190-400 nm and chromatograms were acquired at 265 and 350 nm.
HPLC-MS analysis was carried out to confirm the identity of the HPLC peaks using an Agilent Technologies 6530 Accurate-Mass quadrupole time of flight (QToF) mass spectrometer operating in negative ionization (ESI -) mode. The mass spectrometer experimental parameters were set as follows: the capillary voltage was 3.5 kV, the nebulizer (N2) pressure was 35 psi, the drying gas temperature was 350° C., the drying gas flow was 11 L/min and the skimmer voltage was 65 V. Data were acquired by Agilent Mass Hunter software. The mass spectrometer was operated in full-scan mode in the m/z range 50-1100. Extracted ion chromatograms (EICs) were obtained with an accuracy of 10 ppm m/z from total ion chromatogram (TIC) employing the m/z corresponding to the molecular ions [M-H]^- 385.1504 for Olivetolic Acid Mono-Glucoside, 547.2032 for Olivetolic Acid di-Glucoside, 521.2756 for CBGA Mono-Glucoside, 683.3284 for CBGA Di-Glucoside, 535.2549 for CBGA Glucuronic Acid, 519.2600 for CBDA Mono-Glucoside, 475.2701 for CBD Mono-Glucoside, 637.3302 for CBD Di-Glucoside.
The glycosylated cannabinoid compounds and glycosylated cannabinoid precursor compounds were detected in a relative and semi-quantitative fashion. […]

Molecule | production of glycosylated cannabinoids or cannabinoid precursor compounds
B1 | No production
B2 | No production
B3 | No production
B4 | No production
B5 | No production
B6 | No production
B7 | No production
